In patent US20180319880A1 (Eli Lilly, published 2018):

Experiments:
[1] = biological target: T1, human IL-27 (human, UniProt Q8NEV9 29-243; Q14213 21-229); experiment: SPR (BIAcore 2000), antibody captured on Protein A
T1 sequence (looked up) 1: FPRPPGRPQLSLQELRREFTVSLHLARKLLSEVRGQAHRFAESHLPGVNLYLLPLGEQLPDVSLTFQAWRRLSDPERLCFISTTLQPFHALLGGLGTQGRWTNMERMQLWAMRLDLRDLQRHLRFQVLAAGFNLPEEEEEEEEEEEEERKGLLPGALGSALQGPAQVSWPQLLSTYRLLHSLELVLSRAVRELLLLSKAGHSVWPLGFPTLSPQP
T1 sequence (looked up) 2: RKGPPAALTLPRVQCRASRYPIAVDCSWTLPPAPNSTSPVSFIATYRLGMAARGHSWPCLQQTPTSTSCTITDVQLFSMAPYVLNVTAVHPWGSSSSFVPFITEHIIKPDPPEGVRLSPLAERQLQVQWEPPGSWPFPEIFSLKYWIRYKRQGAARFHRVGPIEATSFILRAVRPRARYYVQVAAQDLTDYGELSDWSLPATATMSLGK

[2] = biological target: T2, human IL-35 (human, UniProt P29459 23-219; Q14213 21-229); experiment: SPR (BIAcore 2000), antibody captured on Protein A
T2 sequence (looked up) 1: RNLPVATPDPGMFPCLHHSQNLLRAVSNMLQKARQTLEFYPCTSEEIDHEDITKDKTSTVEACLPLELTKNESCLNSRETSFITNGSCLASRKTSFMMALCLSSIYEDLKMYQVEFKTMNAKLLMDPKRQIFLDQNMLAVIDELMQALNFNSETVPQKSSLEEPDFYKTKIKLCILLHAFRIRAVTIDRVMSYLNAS
T2 sequence (looked up) 2: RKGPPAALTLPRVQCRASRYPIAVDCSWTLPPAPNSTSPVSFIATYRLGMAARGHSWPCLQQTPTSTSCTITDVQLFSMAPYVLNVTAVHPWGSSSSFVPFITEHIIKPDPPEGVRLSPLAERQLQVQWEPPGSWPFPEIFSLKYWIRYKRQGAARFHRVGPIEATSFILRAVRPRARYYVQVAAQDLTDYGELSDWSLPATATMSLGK

[3] = biological target: T3, human IL-12 (human, UniProt P29459 23-219; P29460 23-328); experiment: SPR (BIAcore 2000), antibody captured on Protein A
T3 sequence (looked up) 1: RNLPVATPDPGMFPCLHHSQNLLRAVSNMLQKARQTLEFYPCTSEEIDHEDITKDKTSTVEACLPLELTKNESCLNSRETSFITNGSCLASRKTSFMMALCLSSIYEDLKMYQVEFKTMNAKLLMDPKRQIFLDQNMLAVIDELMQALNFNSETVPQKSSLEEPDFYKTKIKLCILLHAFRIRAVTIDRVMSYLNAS
T3 sequence (looked up) 2: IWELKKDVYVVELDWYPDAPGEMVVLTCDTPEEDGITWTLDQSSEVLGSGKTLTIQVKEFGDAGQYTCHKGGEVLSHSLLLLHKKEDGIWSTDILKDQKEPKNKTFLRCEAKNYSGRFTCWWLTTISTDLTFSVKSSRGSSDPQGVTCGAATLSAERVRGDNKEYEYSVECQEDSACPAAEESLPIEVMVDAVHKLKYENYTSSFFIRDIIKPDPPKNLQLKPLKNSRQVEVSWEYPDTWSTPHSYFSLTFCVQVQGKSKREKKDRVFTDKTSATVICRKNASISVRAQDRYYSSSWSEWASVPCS

[4] = biological target: T4, rabbit IL-23 (rabbit, UniProt G1SSM0 20-191); experiment: SPR (Biacore T200), antibody captured on Protein A, IL-23 as analyte, 37 C, n=1
T4 construct: not shown: The rabbit p40 subunit (IL-12B) of the heterodimer; Any tag or linker of the reagent is also unstated
T4 sequence (p19): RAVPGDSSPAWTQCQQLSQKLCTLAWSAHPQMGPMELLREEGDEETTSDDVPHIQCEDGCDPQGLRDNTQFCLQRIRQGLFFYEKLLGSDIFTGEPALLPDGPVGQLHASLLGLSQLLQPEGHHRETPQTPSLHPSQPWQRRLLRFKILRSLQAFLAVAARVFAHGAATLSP
Experimental: Affinity and kinetics of Bispecific Antibody 1 to human, cynomolgus monkey, mouse, rat, and rabbit IL-23 are measured using a Biacore T200 instrument (BIAcore® AB, Upsala, Sweden). Briefly, a protein-A coupled CM5 chip is generated using standard amine-coupling protocols. Bispecific Antibody 1 is diluted to 1 μg/mL in running buffer, and approximately 100 RU is captured to the chip surface. A concentration series of each ligand is injected over all flow cells at 100 μL/minute for 180 seconds followed by a 900 second dissociation phase followed by chip regeneration. Data is analyzed in Biacore T200 Evaluation Software Version 1.0 by flow-cell 1 reference subtraction along with 0 nM blank subtraction. Human, cynomolgus monkey, and rabbit IL-23 data are fit globally using a “1:1 (Langmuir) Binding” binding model to determine the on-rate (kₒₙ) and off-rate (koff) for each ligand. The affinity (KD) is calculated from the binding kinetics according to the relationship KD=koff/kₒₙ. Mouse IL-23 binding data is fit using a “Steady State Affinity” binding model to determine affinity (KD). Stoichiometry of binding is calculated according to the relationship: Stoichiometry of binding is calculated according to the relationship: Stoichiometry=[RUₘₐₓ/RU_{Bispecific Antibody 1}]/[MWantigen/MW_{Bispecific Antibody 1}] where MWantigen is the molecular weight of human IL-23 and MW_{Bispecific Antibody 1} is 150 kDa.

[5] = biological target: T5, human CGRP (human/cynomolgus monkey CGRP) (human, not fully specified); experiment: SPR (Biacore T100 or T200), antibody captured on Protein A, CGRP as analyte, 37 C, n=3
T5 construct: also called human Calcitonin Gene Related Peptide; human CGRP peptide (Bachem H-1470)
T5 peptide: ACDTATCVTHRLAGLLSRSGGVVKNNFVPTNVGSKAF
Experimental: (§1) Affinity and kinetics of Bispecific Antibody 1 to human/cynomolgus monkey, mouse/rat, and rabbit CGRP are measured using a Biacore T100 or T200 instrument (BIAcore® AB, Upsala, Sweden). Briefly, a protein-A coupled CM5 chip is generated using standard amine-coupling protocols. […] A concentration series of each ligand is injected over all flow cells at 70-100 μL/minute for 180 seconds followed by a 1500-1800 second dissociation phase followed by chip regeneration.
(§2) Data is analyzed by flow-cell 1 reference subtraction along with 0 nM blank subtraction. The on-rate (kₒₙ) and off-rate (koff) for each ligand are fit globally using a “1:1 (Langmuir) Binding” binding model. The affinity (KD) is calculated from the binding kinetics according to the relationship KD=koff/kₒₙ. Stoichiometry of binding is calculated according to the relationship: Stoichiometry=[RUₘₐₓ/RU_{Bispecific Antibody 1}]/[MWantigen/MW_{Bispecific Antibody 1}] where MWantigen is the molecular weight of human CGRP and MW_{Bispecific Antibody 1} is 150 kDa.

[6] = biological target: T6, mouse IL-23 (mouse, UniProt Q9EQ14 22-196; P43432 23-335); experiment: SPR (Biacore T200), antibody captured on Protein A, steady-state affinity model, 37 C, n=2
T6 sequence (looked up) 1: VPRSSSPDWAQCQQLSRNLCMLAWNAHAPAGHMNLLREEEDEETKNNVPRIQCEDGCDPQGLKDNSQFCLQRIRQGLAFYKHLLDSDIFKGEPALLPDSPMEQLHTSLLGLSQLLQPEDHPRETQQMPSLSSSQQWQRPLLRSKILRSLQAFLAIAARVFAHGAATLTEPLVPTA
T6 sequence (looked up) 2: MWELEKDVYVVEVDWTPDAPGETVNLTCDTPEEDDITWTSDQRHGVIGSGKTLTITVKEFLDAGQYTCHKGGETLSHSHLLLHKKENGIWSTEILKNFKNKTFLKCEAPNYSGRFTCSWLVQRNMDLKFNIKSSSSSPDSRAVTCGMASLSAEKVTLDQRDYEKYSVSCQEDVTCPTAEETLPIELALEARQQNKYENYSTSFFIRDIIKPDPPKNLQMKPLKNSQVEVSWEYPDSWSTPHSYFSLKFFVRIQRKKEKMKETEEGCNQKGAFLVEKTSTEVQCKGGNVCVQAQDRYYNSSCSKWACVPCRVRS
Experimental: Affinity and kinetics of Bispecific Antibody 1 to human, cynomolgus monkey, mouse, rat, and rabbit IL-23 are measured using a Biacore T200 instrument (BIAcore® AB, Upsala, Sweden). Briefly, a protein-A coupled CM5 chip is generated using standard amine-coupling protocols. Bispecific Antibody 1 is diluted to 1 μg/mL in running buffer, and approximately 100 RU is captured to the chip surface. A concentration series of each ligand is injected over all flow cells at 100 μL/minute for 180 seconds followed by a 900 second dissociation phase followed by chip regeneration. Data is analyzed in Biacore T200 Evaluation Software Version 1.0 by flow-cell 1 reference subtraction along with 0 nM blank subtraction. Human, cynomolgus monkey, and rabbit IL-23 data are fit globally using a “1:1 (Langmuir) Binding” binding model to determine the on-rate (kₒₙ) and off-rate (koff) for each ligand. The affinity (KD) is calculated from the binding kinetics according to the relationship KD=koff/kₒₙ. […] Stoichiometry of binding is calculated according to the relationship: Stoichiometry of binding is calculated according to the relationship: Stoichiometry=[RUₘₐₓ/RU_{Bispecific Antibody 1}]/[MWantigen/MW_{Bispecific Antibody 1}] where MWantigen is the molecular weight of human IL-23 and MW_{Bispecific Antibody 1} is 150 kDa. […]

[7] = biological target: rabbit CGRP (rabbit); experiment: SPR (Biacore T100 or T200), antibody captured on Protein A, CGRP as analyte, 37 C, n=1
Experimental: as §1, §2

[8] = biological target: T7, mouse/rat CGRP (mouse/rat, UniProt P01256 83-119 (rat entry)); experiment: as above
T7 construct: also used as the target of the rat dermal blood flow assay (endogenous rat CGRP)
T7 peptide (looked up): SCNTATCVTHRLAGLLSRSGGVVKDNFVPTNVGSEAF
Experimental: as §1, §2

[9] = biological target: T5, human CGRP (human/cynomolgus monkey …); experiment: SPR (BIAcore 3000), antibody captured on Protein A, after CGRP injections, 25 C

binding result [1]: no binding (tested: 400 nM) | binding result [2]: no binding (tested: 400 nM) | binding result [3]: no binding (tested: 400 nM) | Kd [4]: 1020 nM | Stoichiometry [4]: 1 | koff [4]: 0.018 s⁻¹ | kon [4]: 17000 M⁻¹ s⁻¹ | Kd [5]: 0.0071 nM | Stoichiometry [5]: 1 | koff [5]: 7.2e-05 s⁻¹ | kon [5]: 1.5e+07 M⁻¹ s⁻¹ | Kd [6]: > 100 nM | Kd [7]: 0.021 nM | Stoichiometry [7]: 0.9 | koff [7]: 0.00047 s⁻¹ | kon [7]: 2.3e+07 M⁻¹ s⁻¹ | Kd [8]: 0.169 nM | Stoichiometry [8]: 0.8 | koff [8]: 0.00097 s⁻¹ | kon [8]: 5.7e+06 M⁻¹ s⁻¹ | stoichiometry of human CGRP-to-Bispecific Antibody 1 [9]: 0.8
B1: Bispecific Antibody 1 (bispecific antibody, human IgG1, kappa, lambda, L234A L235A)
heavy 1: QVQLVQSGAEVKKPGSSVKVSCKASGYTFGNYWMQWVRYAPGQGLEWMGAIYEGTGKTVYIQKFADRVTITADKSTSTAYMELSSLRSEDTAVYYCARLSDYVSGFGYWGRGTTVTVSSASTKGPSVFPLAPCSKSTSGGTAALGCLVKDYFPEPVTVSWNSGALTSGVHTFPAVLQSSGLYSLSSVVTVPSSSLGTQTYICNVNHKPSNTKVDKKVEPDSGDKTHTCPPCPAPEAAGGPSVFLFPPKPKDTLMISRTPEVTCVVVDVSHEDPEVKFNWYVDGVEVHNAKTKPREEQYNSTYRVVSVLTVLHQDWLNGKEYKCKVSNKALPAPIEKTISKAKGQPREPQVYTLPPSRGDMTKNQVQLTCLVKGFYPSDIAVEWESNGQPENNYKTTPPVLDSDGSFFLASKLTVDKSRWQQGNVFSCSVMHEALHNHYTQKSLSLSPG
light 1: DIQMTQSPSSLSASVGDRVTITCRASKDISKYLNWYQRKPGDAPKLLIYYTSGYHSGVPSRFSGSGSGTDFTLTISSLQPEDFATYYCQQGDALPPTFGGGTKVEIKRTVAAPSVFIFPPSKEQLKSGTASVVCLLNNFYPREAKVQWKVDNALQSGNSQESVTEQDSKDSTYSLSSTLTLSKADYEKHKVYACEVTHQGLSSPVTKSFNRGEC
heavy 2: QVQLVQSGAEVKKPGSSVKVSCKASGYPFTRYVMHWVRKAPGQGLEWMGYINPYNDGVNYNEEFKGRVTITADESTSTAYMELSSLRSEDTAVYYCARNWDTGLWGQGTTVTVSSASTKGPSVFPLAPSSKSTSGGTAALGCLVKDYFPEPVTVSWNSGALTSGVATGPAVLQSSGLYSLSSVVTVPSSSLGTQTYICNVNHKPSNTKVDKKVEPKSCDKTHTCPPCPAPEAAGGPSVFLFPPKPKDTLMISRTPEVTCVVVDVSHEDPEVKFNWYVDGVEVHNAKTKPREEQYNSTYRVVSVLTVLHQDWLNGKEYKCKVSNKALPAPIEKTISKAKGQPREPQVSTLPPSREEMTKNQVSLMCLVYGFYPSDIAVEWESNGQPENNYKTTPPVLDSDGSFFLYSVLTVDKSRWQQGNVFSCSVMHEALHNHYTQKSLSLSPG
light 2: RIQMTQSPSSLSASVGDRVTITCKASDHIGKFLTWYQDKPGKAPKLLIYGATSKLTGVPSRFSGSGSGTDFTLTISSLQPEDFATYYCQQYWSTPFTFGGGTKVEIKGQPKAAPSVTLFPPSSEELQANKATLVCYISDFYPGAVTVAWKADSSPVKAGVETTTPSKQSNNKYAAWSYLSLTPEQWKSHRSYSCQVTHEGSTVEKTVAPTEC
notes: Heterodimeric IgG1 with one arm for CGRP and one arm for the p19 subunit of IL-23; also called exemplified bispecific antibody; anti-CGRP/anti-IL-23 IgG bispecific antibody
